According to the supplement of paper PMC9732359:
± gives the uncertainty stated by the source.

Assay: protein stability index of a GFP-peptide fusion (yeast GPS) (PSI 1-4); higher = more stable; sorted into four equal gates, so the index is relative within each strain
Method in brief: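 Mid-log yeast cultures in leucine-free medium, carrying a pooled plasmid library, were sorted into four equal gates by their GFP/Cherry fluorescence ratio. Each plasmid expressed Cherry along with GFP fused upstream of a tiled 17-residue yeast protein peptide. Plasmids recovered from each gate were PCR-amplified and Illumina-sequenced, with reads assigned to strains by barcodes. The protein stability index was obtained by summing each gate's read frequency weighted by its gate number.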

Sequence | protein stability index (doa10∆) | protein stability index (pdr5∆) | protein stability index (san1∆) | protein stability index (ubr1∆)
AFVSVYSKNNPNLLFSM [PRP8] | 1.93 ± 0.063 | 2.74 ± 0.058 | 2.61 ± 0.064 | 2.71 ± 0.038
LNEAPFPEENIIDAKTR [MCD1] | 3.12 ± 0.078 | 3.17 ± 0.052 | 3.136 ± 0.031 | 3.27 ± 0.051
LDVTKEAQANLLTAKHG [RPO21] | 3.23 ± 0.17 | 3.46 ± 0.18 | 2.8 ± 0.19 | 3.18 ± 0.19
SAGFETDLRLSTNGLGM [SNU114] | 3.43 ± 0.1 | 3.46 ± 0.12 | 2.98 ± 0.22 | 3.13 ± 0.22
NSYQPSPFFVLDEVDAA [SMC1] | 2.6 ± 0.12 | 2.57 ± 0.12 | 2.49 ± 0.12 | 2.77 ± 0.087
KIPLPEVHDLIGFITSG [POP1] |  | 1.66 ± 0.24 | 1.88 ± 0.18 | 1.91 ± 0.14
MSQSTASLVPEGNQGSL [MED8] | 3.16 ± 0.12 | 2.97 ± 0.1 | 2.62 ± 0.096 | 2.76 ± 0.13
NPSEFTPNMVNSEISNL [SSN2] | 2.66 ± 0.08 | 2.5 ± 0.1 | 2.58 ± 0.08 | 2.91 ± 0.062
KSDEGGSYLCTSSTPSP [YOR098C/NUP1] | 3.16 ± 0.065 | 3.09 ± 0.079 | 2.7 ± 0.067 | 3.07 ± 0.06
TVAVMSYSGYDIEDALV [RET1] | 2.7 ± 0.16 | 2.15 ± 0.11 | 1.97 ± 0.16 | 2.83 ± 0.072
GVAMNPVDHPHGGGNHQ [RPL2A] | 2.9 ± 0.27 |  |  | 3.25 ± 0.14
IYQVPEKDLEHWLQLAK [POP1] | 3.22 ± 0.12 | 3.13 ± 0.13 | 3.42 ± 0.091 | 3.1 ± 0.099
KNYPEYFLKVTFLKYFG [IRR1] | 1.33 ± 0.085 | 1.54 ± 0.052 | 1.22 ± 0.14 | 1.49 ± 0.046
LGHTKAALGEVASMELK [SIR2] | 2.79 ± 0.085 | 2.96 ± 0.077 | 3.23 ± 0.064 | 2.98 ± 0.12
KVLEMKNLKDTASVEKA [YIL149C/MLP2] | 2.95 ± 0.091 | 3.26 ± 0.093 | 3.08 ± 0.098 | 3.21 ± 0.08
KTKILEVAIRDVNLDVR [IRR1] | 2.58 ± 0.055 | 2.12 ± 0.065 | 2.38 ± 0.057 | 2.48 ± 0.052
YPFLLSFLGEAKSMAFL [YML103C/NUP188] | 2.18 ± 0.084 | 2.35 ± 0.067 | 2.29 ± 0.11 | 2.38 ± 0.048
LKNVNKRAFENFKKFNE [SMC3] | 2.23 ± 0.086 | 1.95 ± 0.15 | 1.91 ± 0.094 | 1.88 ± 0.09
TQHEEEEEQDTGESEES [IRR1] |  | 3.29 ± 0.1 | 3.26 ± 0.092 | 3.39 ± 0.15
LQSLTSKGYVKTQFSWQ [RPS10A] | 3.2 ± 0.1 | 2.94 ± 0.096 | 2.76 ± 0.086 | 3.07 ± 0.065
LQCPMLYVESTGKFVLQ [CSN12] | 2.34 ± 0.12 | 2.98 ± 0.12 | 2.43 ± 0.15 | 2.68 ± 0.1
MKTPSLTVYLEPGHAAD [RPO21] | 3.01 ± 0.092 | 2.7 ± 0.079 | 2.9 ± 0.059 | 3 ± 0.073
EAASSNKSFIVDQGQIY [ITC1] | 2.92 ± 0.1 | 2.95 ± 0.068 | 2.89 ± 0.044 | 2.93 ± 0.05
QIKTLPEQYSDILLNER [AAR2] | 2.96 ± 0.077 | 3.24 ± 0.06 | 3.14 ± 0.077 | 2.95 ± 0.072
KNPRVTKEYLVQNLRSW [CSN9] |  | 3 ± 0.3 | 3.16 ± 0.11 | 3.36 ± 0.091
QKLLKQLDSDANKLSKS [ISW2] | 3.03 ± 0.048 | 2.89 ± 0.053 | 2.92 ± 0.047 | 2.98 ± 0.04

Sequence | protein stability index (doa10∆) | protein stability index (pdr5∆) | protein stability index (san1∆) | protein stability index (ubr1∆)
LKLGLVEYLDVNEENDS [RET1] | 3.11 ± 0.075 | 3.08 ± 0.086 | 3.16 ± 0.071 | 3.1 ± 0.075
KTRFKGSQFIVVSLKEG [SMC2] | 3.46 ± 0.12 | 3.16 ± 0.08 | 3.35 ± 0.069 | 3.34 ± 0.046
NDLGKFIPNKQLNCVID [RPN7] | 2.49 ± 0.13 | 2.85 ± 0.19 | 2.77 ± 0.17 | 3.05 ± 0.19
RDREPKEPVALIETVRQ [RPN2] | 3.32 ± 0.081 | 3.47 ± 0.12 | 3.12 ± 0.079 | 3.34 ± 0.071
MQGKITKVLNMKPSEIL [SMC2] | 2.48 ± 0.25 | 2.88 ± 0.18 |  | 
YHLLNYDPIKRIDAFNA [SSN3] | 2.33 ± 0.065 | 1.77 ± 0.04 | 1.6 ± 0.074 | 1.73 ± 0.031
IVVMDCFNLPVVGTETR [RRI1] | 2.24 ± 0.13 | 2.66 ± 0.12 | 2.29 ± 0.17 | 
DEEAAGASTVMKTKTIN [PRP8] | 3.34 ± 0.089 | 3.12 ± 0.071 | 3.28 ± 0.063 | 3.19 ± 0.061
DEAEGRFEVINNETEQL [SMC1] | 2.07 ± 0.072 | 2.56 ± 0.076 | 3.04 ± 0.14 | 2.82 ± 0.1
EISASESKFILEALRQN [RRP45] | 2.94 ± 0.096 | 2.98 ± 0.12 | 2.88 ± 0.094 | 2.81 ± 0.074
DRKNRAPPQRPRFNREN [RPS26A] | 2.81 ± 0.11 | 2.64 ± 0.082 | 3.29 ± 0.11 | 3.02 ± 0.091
SSIENNINNNINSTKNG [MED2] | 2.85 ± 0.081 | 3.11 ± 0.093 | 2.88 ± 0.084 | 3.17 ± 0.063
RIIRKKIFIAVVWYQRL [RRI2] | 1.28 ± 0.042 | 1.27 ± 0.036 | 1.27 ± 0.084 | 1.25 ± 0.034
SNIQRNVLFLRLFNNVK [SRP72] | 2.24 ± 0.059 | 2.23 ± 0.054 | 1.49 ± 0.076 | 1.83 ± 0.05
NGNDESSEYETINISLS [NUT1] | 3.16 ± 0.12 | 3.32 ± 0.2 | 3.06 ± 0.12 | 3.58 ± 0.25
KGRYAPETGDHVVGRIA [RRP4] | 3.03 ± 0.08 | 3.21 ± 0.08 | 2.6 ± 0.11 | 2.67 ± 0.11
LDNMTYSSVAGTVSRVN [RRP4] | 2.44 ± 0.049 | 2.52 ± 0.05 | 2.23 ± 0.051 | 2.21 ± 0.036
PPTTSNLIIFLYKFNGW [YML103C/NUP188] | 1.76 ± 0.046 | 2.26 ± 0.045 | 2.32 ± 0.058 | 2.53 ± 0.051
RDDEPKLYQTEPSGIYS [PRE6] | 3.14 ± 0.058 | 3.07 ± 0.082 | 3.09 ± 0.051 | 3.18 ± 0.046
RRHRNPDLQFIVISLKN [SMC1] | 1.86 ± 0.041 | 1.83 ± 0.039 | 1.73 ± 0.058 | 2.13 ± 0.027
PLNDGFVDLVEHFLKLN [YML103C/NUP188] | 1.84 ± 0.28 | 1.63 ± 0.12 |  | 2.53 ± 0.13
INAKNIAFASNYGIVEL [RRP43] | 2.04 ± 0.053 | 1.49 ± 0.056 | 1.4 ± 0.14 | 1.84 ± 0.051
LINLKISPLMKSQYNMV [SRB8] | 1.8 ± 0.085 | 1.59 ± 0.08 | 2.07 ± 0.14 | 1.53 ± 0.12
ARVSPRNNVANKQPRNE [YAR002W/NUP60] | 3.29 ± 0.14 | 3.78 ± 0.26 |  | 3.65 ± 0.25
FEGDSNMLICAPTGSGK [BRR2] | 1.79 ± 0.096 | 1.43 ± 0.075 | 1.71 ± 0.14 | 2.18 ± 0.071
LYQLVDIRDSSCQGNVI [YMR129W/POM152] | 3.02 ± 0.1 | 3.12 ± 0.089 | 2.86 ± 0.058 | 2.96 ± 0.048
